According to patent US20120178796A1 (published 2012):

B1: SIRT1-FL (endogenous full length SIRT1) (enzyme, human, UniProt Q96EB6 1-747, looked up)
chain: MADEAALALQPGGSPSAAGADREAASSPAGEPLRKRPRRDGPGLERSPGEPGGAAPEREVPAAARGCPGAAAAALWREAEAEAAAAGGEQEAQATAAAGEGDNGPGLQGPSREPPLADNLYDEDDDDEGEEEEEAAAAAIGYRDNLLFGDEIITNGFHSCESDEEDRASHASSSDWTPRPRIGPYTFVQQHLMIGTDPRTILKDLLPETIPPPELDDMTLWQIVINILSEPPKRKKRKDINTIEDAVKLLQECKKIIVLTGAGVSVSCGIPDFRSRDGIYARLAVDFPDLPDPQAMFDIEYFRKDPRPFFKFAKEIYPGQFQPSLCHKFIALSDKEGKLLRNYTQNIDTLEQVAGIQRIIQCHGSFATASCLICKYKVDCEAVRGDIFNQVVPRCPRCPADEPLAIMKPEIVFFGENLPEQFHRAMKYDKDEVDLLIVIGSSLKVRPVALIPSSIPHEVPQILINREPLPHLHFDVELLGDCDVIINELCHRLGGEYAKLCCNPVKLSEITEKPPRTQKELAYLSELPPTPLHVSEDSSSPERTSPPDSSVIVTLLDQAAKSNDDLDVSESKGCMEEKPQEVQTSRNVESIAEQMENPDLKNVGSSTGEKNERTSVAGTVRKCWPNRVAKEQISRRLDGNQYLFLPPNRYIFHGAEVYSDSEDDVLSSSSCGSNSDSGTCQSPSLEEPMEDESEIEEFYNGLEDEPDVPERAGGAGFGTDGDDQEAINEAISVKQEVTDMNYPSNKS
B2: Myc-His-SIRT1 Δ2-9 (MH-SIRT1 Δ2-9) (other, not shown: small tags and cut ends)
chain: MADEAALALQPGGSPSAAGADREAASSPAGEPLRKRPRRDGPGLERSPGEPGGAAPEREVPAAARGCPGAAAAALWREAEAEAAAAGGEQEAQATAAAGEGDNGPGLQGPSREPPLADNLYDEDDDDEGEEEEEAAAAAIGYRDNLLFVLVAVTVIVGHARVQV
notes: Expressed in HCT116 p53+/+ cells from pcDNA3.1; Serine 47 found phosphorylated; also called exogenous SIRT1 Δ2-9
B3: Flag-tagged AROS (other, UniProt Q86WX3 1-136, looked up, not shown: small tags and cut ends)
chain: MSAALLRRGLELLAASEAPRDPPGQAKPRGAPVKRPRKTKAIQAQKLRNSAKGKVPKSALDEYRKRECRDHLRVNLKFLTRTRSTVAESVSQQILRQNRGRKACDRPVAKTKKKKAEGTVFTEEDFQKFQQEYFGS
notes: its order in the chain is arbitrary
B4: Myc-tagged SIRT1-ΔExon8 (SIRT1 Δ8 tagged at the C-terminus with c-Myc and 6x His) (enzyme)
chain: ADEAALALQPGGSPSAAGADREAASSPAGEPLRKRPRRDGPGLERSPGEPGGAAPEREVPAAARGCPGAAAAALWREAEAEAAAAGGEQEAQATAAAGEGDNGPGLQGPSREPPLADNLYDEDDDDEGEEEEEAAAAAIGYRDNLLFGDEIITNGFHSCESDEEDRASHASSSDWTPRPRIGPYTFVQQHLMIGTDPRTILKDLLPETIPPPELDDMTLWQIVINILSEPPKRKKRKDINTIEDAVKLLQECKKIIVLTGAGVSVSCGIPDFRSRDGIYARLAVDFPDLPDPQAMFDIEYFRKDPRPFFKFAKEIYPGQFQPSLCHKFIALSDKEGKLLRNYTQNIDTLEQVAGIQRIIQCHGSFATASCLICKYKVDCEAVRGDIFNQVVPRCPRCPADEPLAIMKPEIVFFGENLPEQFHRAMKYDKDEVDLLIVIGSSLKVRPVALIPSNQYLFLPPNRYIFHGAEVYSDSEDDVLSSSSCGSNSDSGTCQSPSLEEPMEDESEIEEFYNGLEDEPDVPERAGGAGFGTDGDDQEAINEAISVKQEVTDMNYPSNKS
notes: Transiently expressed in HCT116 cells, about 95 kDa; Found phosphorylated at S27 and S47 in lysates; also called SIRT1-delta exon 8; SIRT1 D8; not shown: C-terminal c-Myc and 6x His tags

Columns and labels:
[1] = target: T1, p53 (endogenous, HCT116 p53+/+ cells) (human, UniProt P04637 1-393); assay: cell-based or functional assay
T1 sequence (P04637 whole entry): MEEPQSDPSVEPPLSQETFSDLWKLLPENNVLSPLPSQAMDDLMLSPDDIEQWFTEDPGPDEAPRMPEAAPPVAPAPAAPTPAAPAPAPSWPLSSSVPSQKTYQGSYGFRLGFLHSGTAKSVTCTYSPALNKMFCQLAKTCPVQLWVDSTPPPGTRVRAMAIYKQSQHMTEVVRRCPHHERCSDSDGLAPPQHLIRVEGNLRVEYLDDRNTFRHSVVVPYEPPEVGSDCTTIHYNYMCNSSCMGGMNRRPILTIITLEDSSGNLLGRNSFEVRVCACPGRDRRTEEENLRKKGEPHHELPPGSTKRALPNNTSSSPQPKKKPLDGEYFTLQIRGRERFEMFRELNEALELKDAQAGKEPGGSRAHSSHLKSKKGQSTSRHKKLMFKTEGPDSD

[2] = target: T1, p53 (endogenous, HCT116 p53+/+ cells); assay: immunoprecipitation of exogenous SIRT1 Δ2-9 with His antibody, blotted with p53 antibody
[3] = target: B4; assay: pull-down / co-immunoprecipitation from HCT116 cells
Experimental: (§1) SIRT1-ΔExon8 was exogenously expressed in HCT116 cells and immuno-precipitated. […] SIRT1-ΔExon8 and Flag-tagged AROS were exogenously expressed in HCT116 cells, and the Flag epitope was immuno-precipitated. In the eluate, AROS was detected by probing with an anti-AROS antibody (Methods), while the interaction with SIRT1-ΔExon8 was probed with anti-c-Myc antibody (9E10, Santa Cruz). C. […] SIRT1-ΔExon8 was exogenously expressed in HCT116 cells and cells were harvested 24 h post-transfection. Cell lysates were immuno-precipitated with anti-c-Myc antibody (9E10, Santa Cruz). Western-blotting was performed with a C-terminal anti-SIRT1 antibody (residues 448-747, H300, Santa Cruz) which detects both endogenous SIRT1-FL and SIRT1-ΔExon8 (see: FIG. 2a). * indicates a non-specific band;

[4] = target: T2, DBC-1 (endogenous, HCT116 cells) (human, UniProt Q8N163 1-923); assay: immunoprecipitation of exogenous SIRT1-ΔExon8 from HCT116 cells, eluate probed with anti-DBC-1
T2 construct: Endogenous protein in cell lysate, probed with anti-DBC-1; also called endogenous DBC-1
T2 sequence (Q8N163 whole entry): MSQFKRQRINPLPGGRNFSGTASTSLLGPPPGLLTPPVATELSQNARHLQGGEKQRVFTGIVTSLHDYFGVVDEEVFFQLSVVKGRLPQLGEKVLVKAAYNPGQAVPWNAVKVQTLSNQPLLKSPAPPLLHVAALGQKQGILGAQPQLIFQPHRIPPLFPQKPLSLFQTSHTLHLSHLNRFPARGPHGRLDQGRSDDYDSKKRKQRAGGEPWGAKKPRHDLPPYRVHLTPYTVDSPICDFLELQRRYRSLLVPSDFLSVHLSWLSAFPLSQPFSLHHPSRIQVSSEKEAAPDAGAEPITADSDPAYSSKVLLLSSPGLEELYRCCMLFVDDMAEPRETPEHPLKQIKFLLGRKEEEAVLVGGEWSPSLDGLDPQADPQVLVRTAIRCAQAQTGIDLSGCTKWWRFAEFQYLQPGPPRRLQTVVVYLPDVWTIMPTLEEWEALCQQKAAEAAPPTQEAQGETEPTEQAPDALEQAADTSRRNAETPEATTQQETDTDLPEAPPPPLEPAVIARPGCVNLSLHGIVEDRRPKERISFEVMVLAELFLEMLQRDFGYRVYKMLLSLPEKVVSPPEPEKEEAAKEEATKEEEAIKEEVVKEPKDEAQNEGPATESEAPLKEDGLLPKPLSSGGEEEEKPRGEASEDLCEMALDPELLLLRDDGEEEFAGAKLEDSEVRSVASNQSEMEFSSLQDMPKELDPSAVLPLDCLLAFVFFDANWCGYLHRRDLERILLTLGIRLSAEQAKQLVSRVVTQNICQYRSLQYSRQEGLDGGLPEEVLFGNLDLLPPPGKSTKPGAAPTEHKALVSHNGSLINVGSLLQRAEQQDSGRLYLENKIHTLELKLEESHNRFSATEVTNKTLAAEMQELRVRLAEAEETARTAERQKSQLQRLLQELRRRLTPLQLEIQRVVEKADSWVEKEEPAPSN
Experimental: as §1

[5] = target: B1; assay: immunoprecipitation with anti-c-Myc 9E10 from HCT116 lysates, Western blot with H300 anti-SIRT1
Experimental: as §1

Binder: B1
p53 acetylation levels following SIRT1 FL depletion (siRNA) under basal conditions in HCT116 cells, immunoblot [1]: > 50 fold

Binder: B2
binding result [2]: binds

Binder: B3
binding result [3]: binds

Binder: B4
binding result [4]: no binding
binding result [5]: no binding
